Results published in patent publication US20220403001A1, “PDE5 DERIVED REGULATORY CONSTRUCTS AND METHODS OF USE IN IMMUNOTHERAPY” (Obsidian Therapeutics, Inc., priority 2018, published 2022).

Tests used:
hPDE5 mutants [1] = biological target: T1, hPDE5 mutants (Homo sapiens, UniProt O76074); test: GFP MFI by FACS in HCT116 cells transduced with hPDE5 constructs; type: cell-based; conditions: for Vardenafil Stabilization ratio / Sildenafil Stabilization ratio / GFP by FACS, Sildenafil 10 μM / GFP by FACS, Vardenafil 1 μM: hotspot constructs; for Vardenafil Stabilization ratio: 1 μM Vardenafil; for Sildenafil Stabilization ratio: 10 μM Sildenafil; for GFP by FACS, Sildenafil 10 μM / GFP by FACS, Vardenafil 1 μM: HCT116
Method: (§1) Desirable qualities of a DD include, low expression of the SRE in the absence of ligand and ligand dependent stabilization of the SRE. Constructs were generated using DDs linked to GFP using an SG linker. […] The mean fluorescence intensity (MFI) of GFP was analyzed by FACS. […] Destabilizing mutation coefficient less than 1 are desirable.
(§2) Mean fluorescence intensity (MFI) was measured by FACS. […] Destabilizing mutation coefficient ratios less than 1 are desirable.
(§3) Mean fluorescence intensity (MFI) was measured by FACS. […] Destabilizing mutation co-efficient ratios less than 1 are desirable.
(§4) Mean fluorescence intensity (MFI) was measured by FACS. […] Destabilizing mutation coefficient less than 1 are desirable.
as §4
(§5) Mean fluorescence intensity (MFI) of GFP was measured by FACS.
(§6) Mean fluorescence intensity (MFI) was measured by FACS.
(§7) The media containing the ligand was removed and fresh media without the ligand was added.
(§8) The properties of the DDs were analyzed in the presence and absence of ligands via FACS as previously described.
(§9) GFP fluorescence was measured by FACS.
(§10) The properties of the DDs were analyzed via FACS both in the presence and absence of ligands.
as §9

hPDE5 mutants [2] = test: as above; type: cell-based, human; conditions: for MFI: 48 hours, HCT 116 cells; for Sildenafil Destabilizing mutation coefficient / Vardenafil Destabilizing mutation coefficient / GFP by FACS, Sildenafil 0 μM (DMSO) / GFP by FACS, Vardenafil 0 μM (DMSO): hotspot constructs; for Sildenafil Destabilizing mutation coefficient: DMSO control of Sildenafil; for Sildenafil Destabilizing mutation coefficient / Vardenafil Destabilizing mutation coefficient: vs OT-001075; for Vardenafil Destabilizing mutation coefficient: DMSO control of Vardenafil; for GFP by FACS, Sildenafil 0 μM (DMSO): HCT116, DMSO control of Sildenafil; for GFP by FACS, Vardenafil 0 μM (DMSO): HCT116, DMSO control of Vardenafil
Method: as §1, §2, §3, §4, §4, §5, §6, §7, §8, §9, §10, §9

hPDE5 mutants [3] = biological target: T1, hPDE5 mutants; test: Western blot of AcGFP/GFP protein levels in HCT 116 cells expressing hPDE5 mutants; type: cell-based; set-up: GFP protein levels (western blot); fused on or other part: AcGFP reporter through a linker; conditions: vardenafil vs DMSO, HCT 116, R732 mutants
Method: Protein expression analysis of the combination mutants was performed in parallel via western blot. […] GAPDH levels were also analyzed to ensure even protein loading.

[4] = Table 44, Vardenafil 0.01 μM, 48 h, HCT 116
[5] = Table 44, Vardenafil 0.04 μM, 48 h, HCT 116
[6] = Table 44, Vardenafil 3.33 μM, 48 h, HCT 116
[7] = Table 44, Vardenafil 10 μM, 48 h, HCT 116
[8] = Table 44, Vardenafil 30 μM, 48 h, HCT 116
[9] = Table 44, Vardenafil 1000 μM, 48 h, HCT 116
[10] = Table 45, Sildenafil 0.01 μM, 48 h, HCT 116
[11] = Table 45, Sildenafil 0.04 μM, 48 h, HCT 116
[12] = Table 45, Sildenafil 3.33 μM, 48 h, HCT 116
[13] = Table 45, Sildenafil 10 μM, 48 h, HCT 116
[14] = Table 45, Sildenafil 30 μM, 48 h, HCT 116
[15] = Table 45, Sildenafil 1000 μM, 48 h, HCT 116
[16] = Tadalafil 0.01 μM, 48 hours, HCT 116 cells

| Substance | MFI (hPDE5 mutants [1]; [4]) | MFI (hPDE5 mutants [1]; [5]) | MFI (hPDE5 mutants [1]; [6]) | MFI (hPDE5 mutants [1]; [7]) | MFI (hPDE5 mutants [1]; [8]) | MFI (hPDE5 mutants [1]; [9]) | MFI (hPDE5 mutants [1]; [10]) | MFI (hPDE5 mutants [1]; [11]) | MFI (hPDE5 mutants [1]; [12]) | MFI (hPDE5 mutants [1]; [13]) | MFI (hPDE5 mutants [1]; [14]) | Vardenafil Stabilization ratio (hPDE5 mutants [1]) | Sildenafil Stabilization ratio (hPDE5 mutants [1]) | GFP by FACS, Sildenafil 10 μM (hPDE5 mutants [1]) | GFP by FACS, Vardenafil 1 μM (hPDE5 mutants [1]) | Sildenafil Destabilizing mutation coefficient (hPDE5 mutants [2]) | Vardenafil Destabilizing mutation coefficient (hPDE5 mutants [2]) | GFP by FACS, Sildenafil 0 μM (DMSO) (hPDE5 mutants [2]) | GFP by FACS, Vardenafil 0 μM (DMSO) (hPDE5 mutants [2]) | GFP protein levels (western blot) (hPDE5 mutants [3]) | further results |
| --- | --- | --- | --- | --- | --- | --- | --- | --- | --- | --- | --- | --- | --- | --- | --- | --- | --- | --- | --- | --- | --- |
| OT-001187: hPDE5 R732A AcGFP construct | 2551 | 8345 | 16783 | 18945 | 22548 | 22548 | 808 | 1025 | 3769 | 4716 | 5694 | 4.87 | 1.21 | 348 | 853 | 0.29 | 1.09 | 288 | 175 | strong stabilization of GFP levels | MFI (hPDE5 mutants [1]; [15]): 5694; MFI (hPDE5 mutants [1]; [16]): 752; MFI (hPDE5 mutants [2]; Tadalafil 11.11 μM): 5126; MFI (hPDE5 mutants [2]; Tadalafil 33.33 μM): 6264; MFI (hPDE5 mutants [2]; Tadalafil 100 μM): 6301; MFI (hPDE5 mutants [2]; Tadalafil 1000 μM): 6301 |
| OT-001188: hPDE5 R732V AcGFP construct |  |  |  |  |  |  |  |  |  |  |  | 3.38 | 0.6 | 113 | 507 | 0.19 | 0.93 | 189 | 150 | Modest ligand dependent stabilization of GFP levels |  |
| OT-001189: hPDE5 R732I AcGFP construct | 1810 | 3356 | 14531 | 17645 | 24322 | 24322 | 579 | 612 | 1709 | 2733 | 4197 | 3.89 | 0.85 | 170 | 587 | 0.2 | 0.94 | 201 | 151 | Modest ligand dependent stabilization of GFP levels | MFI (hPDE5 mutants [1]; [15]): 4197; MFI (hPDE5 mutants [1]; [16]): 498; MFI (hPDE5 mutants [2]; Tadalafil 11.11 μM): 2746; MFI (hPDE5 mutants [2]; Tadalafil 33.33 μM): 3970; MFI (hPDE5 mutants [2]; Tadalafil 100 μM): 5487; MFI (hPDE5 mutants [2]; Tadalafil 1000 μM): 5487 |
| OT-001190: hPDE5 R732P AcGFP construct |  |  |  |  |  |  |  |  |  |  |  | 0.87 | 0.95 | 361 | 310 | 0.38 | 2.2 | 379 | 355 | strong stabilization of GFP levels |  |
| OT-001191: hPDE5 R732F AcGFP construct | 2188 | 8468 | 14705 | 17021 | 20693 | 20693 | 688 | 916 | 3555 | 4427 | 5449 | 4.99 | 1.51 | 351 | 943 | 0.24 | 1.17 | 233 | 189 | Modest ligand dependent stabilization of GFP levels | MFI (hPDE5 mutants [1]; [15]): 5449; MFI (hPDE5 mutants [1]; [16]): 631; MFI (hPDE5 mutants [2]; Tadalafil 11.11 μM): 4734; MFI (hPDE5 mutants [2]; Tadalafil 33.33 μM): 5293; MFI (hPDE5 mutants [2]; Tadalafil 100 μM): 5867; MFI (hPDE5 mutants [2]; Tadalafil 1000 μM): 5867 |
| OT-001192: hPDE5 R732W AcGFP construct |  |  |  |  |  |  |  |  |  |  |  | 0.59 | 0.64 | 158 | 179 | 0.25 | 1.87 | 248 | 301 | strong stabilization of GFP levels |  |
| OT-001193: hPDE5 R732Y AcGFP construct |  |  |  |  |  |  |  |  |  |  |  | 1.14 | 1.63 | 648 | 345 | 0.4 | 1.88 | 397 | 302 | strong stabilization of GFP levels |  |
| OT-001195: hPDE5 R732H AcGFP construct |  |  |  |  |  |  |  |  |  |  |  | 1.06 | 2.02 | 710 | 328 | 0.36 | 1.91 | 352 | 308 | strong stabilization of GFP levels |  |
| OT-001196: hPDE5 R732S AcGFP construct |  |  |  |  |  |  |  |  |  |  |  | 0.7 | 0.98 | 746 | 399 | 0.77 | 3.52 | 760 | 566 | strong stabilization of GFP levels |  |
